Test results taken from patent US5863776A, “Method of preparing apoenzyme” (Research Development Foundation, priority 1996, dated 1999).

Tests used:
MAO B [1] = target: T1, MAO B (Homo sapiens, UniProt P27338); assay: MAO B enzymatic activity in COS-7 cells during riboflavin depletion; format: cell-based
T1 construct: expressed in transfected cells; host or cells: COS-7 (African green monkey), riboflavin-containing (Rib+) or riboflavin-depleted (Rib-), transient electroporation
T1 sequence (P27338 1-520): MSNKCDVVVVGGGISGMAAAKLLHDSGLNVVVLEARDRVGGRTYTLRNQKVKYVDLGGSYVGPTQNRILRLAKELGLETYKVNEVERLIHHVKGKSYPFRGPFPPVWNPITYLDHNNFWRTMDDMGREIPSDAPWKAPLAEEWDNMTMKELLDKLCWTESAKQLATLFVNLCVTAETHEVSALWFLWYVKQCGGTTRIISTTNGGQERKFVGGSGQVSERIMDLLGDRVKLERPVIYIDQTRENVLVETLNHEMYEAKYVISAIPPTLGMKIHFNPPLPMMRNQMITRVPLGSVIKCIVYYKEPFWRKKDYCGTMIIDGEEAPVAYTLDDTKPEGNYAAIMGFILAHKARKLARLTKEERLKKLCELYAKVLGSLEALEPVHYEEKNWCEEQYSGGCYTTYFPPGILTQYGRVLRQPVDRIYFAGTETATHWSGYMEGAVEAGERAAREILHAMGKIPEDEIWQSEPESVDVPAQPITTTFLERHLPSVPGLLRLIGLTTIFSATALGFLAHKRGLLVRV
Procedure: Mammalian COS-7 cells were grown in Dulbecco's Modified Eagle Medium (DMEM, Gibco) supplemented with 10% fetal bovine serum (FBS, Gibco) at 37° C. with 5% CO2. Since this medium (DMEM+10% FBS) contains riboflavin, COS-7 cells grown in this medium were defined as riboflavin-containing COS-7 cells (Rib^+ COS-7 cells). MAO B holoenzyme was obtained by expressing MAO B cDNA in Rib^+ COS-7 cells. Mammalian COS-7 cells were also grown in riboflavin-free medium (riboflavin-free DMEM+10% dialyzed FBS, Gibco) at 37° C. with 5% CO2, with fresh riboflavin-free medium changed every 48-72 hours. COS-7 cells grown in riboflavin-free medium for longer than 100 days were defined as riboflavin-depleted (Rib^-) COS-7 cells. Apo-MAO B was obtained by expressing MAO B cDNA in Rib^- COS-7 cells. COS-7 cells were grown in riboflavin-free medium for greater than 5 months without any detectable change in morphology.
Wild-type or mutant MAO B cDNAs were transiently transfected into COS-7 cells by electroporation (23) as previously described (18). […]
MAO B activity was assayed radiometrically by a modification of the method of Wurtman and Axelrod (26) as described previously (18). […] The reaction product was extracted with 500 μl of toluene, and an aliquot (200 μl) of the organic phase from each sample was counted in liquid scintillation fluid (Bio-Safe) in a Beckman LB 3801 scintillation counter. […]

MAO B [2] = target: T1, MAO B; assay: Quantitation of expressed MAO B protein by ELISA in transfected COS-7 cells; format: cell-based; parameters: MAO B Expressed: unit not given here
Procedure: (§1) Total protein concentrations of samples containing MAO B holoenzyme, apoenzyme, or variant MAO Bs were determined by a MicroBCA kit (Pierce). All samples were then adjusted to equal protein concentrations and assayed for MAO B protein by ELISA using a modification of the method of Yeomanson and Billett (25) as described previously (18).
MAO B cDNA was expressed sequentially at different time intervals in these cells during this riboflavin depletion process (FIG. 2). Each data point in FIG. 2 represents an individual expression assay. For each assay, a sample of COS-7 cells grown in riboflavin-free medium were transfected with MAO B cDNA via electroporation. Concurrently, Rib^+ COS-7 cells were transfected with MAO B cDNA to serve as a control. Following incubation for 48 hours, the cells were homogenized and assays were performed to determine protein concentration, MAO B concentration by ELISA using polyclonal antibodies, and MAO B activity using [^14 C] benzylamine.
An equal amount of MAO B cDNA (15 μg) was expressed in both types of […]

MAO B [3] = target: T1, MAO B; assay: FAD coupling in intact cells: MAO B enzymatic activity after electroporation of MAO B cDNA with cofactor into Rib^- COS-7 cells ([^14 C] benzylamine substrate); format: cell-based; parameters: Percent of Holo-MAO B Activity: concentration or dose not given beside the values
Procedure: Wild-type or mutant MAO B cDNAs were transiently transfected into COS-7 cells by electroporation (23) as previously described (18). Briefly, Rib^+ - or Rib^- COS-7 cells were harvested during late log phase growth and resuspended to a concentration of 3.1×10^6 cells/ml in either riboflavin-containing or riboflavin-free medium, respectively. Wild-type or mutant MAO B cDNAs ([…]) were added to 0.8 ml of cell suspension. […] Electroporation was carried out in a Bio-Rad Gene Pulser with a setting of 250 V and 500 μF. Cells were resuspended in 15 ml of riboflavin-containing or riboflavin-free medium and incubated at 37° C. with 5% CO2. Transfected COS-7 cells were harvested at 48 hours and homogenized in a lysis solution containing 20 mM Tris-HCl, 1 mM EDTA, 0.5 mM PMSF, pH 8.0. The homogenate was diluted with an equal volume of the same buffer supplemented with 300 mM NaCl to obtain a 150 mM final NaCl concentration. Triton X-100 (Pierce) was added to the lysate to give a final concentration of 0.25%, and the samples were allowed to stir for 50 min. at 4° C. to extract MAO B from the outer mitochondrial membrane. After Triton extraction, the lysate was centrifuged at 1300×g for 5 min. at 4° C. to remove insoluble cell debris.
(§2) MAO B activity was assayed radiometrically by a modification of the method of Wurtman and Axelrod (26) as described previously (18). Briefly, the reaction mixture contained 200 μl of 50 mM sodium phosphate buffer (pH 7.4), 3.6 nmole of 55 mCi/mmol [^14 C] benzylamine hydrochloride (Amersham), 10 nmoles of unlabeled benzylamine and 10 μl of cell lysate. Samples were run in triplicate, and one out of each set was denatured with […] of 6N HCl prior to the addition of substrate to serve as an internal control. All reactions were incubated for 9 minutes at 37° C., and terminated by the addition of 25 μl of 6N HCl. The reaction product was extracted with 500 μl of toluene, and an aliquot (200 μl) of the organic phase from each sample was counted in liquid scintillation fluid (Bio-Safe) in a Beckman LB 3801 scintillation counter.
FMN or riboflavin were also capable of restoring approximately 75% of MAO B holoenzyme activity. However, only 40% of MAO B holoenzyme activity was obtained by the addition of 8α-hydroxyriboflavin.
Various cofactors were added with MAO B cDNA into Rib^- COS7 cells

MAO B [4] = target: T1, MAO B; assay: FAD coupling in vitro (flavinylation assay in cell lysate, 30° C.); format: biochemical; settings: up to 3 hours at 30° C.
Procedure: (- - - x - - - ). […] The enzymatic activity of each sample was determined at 1 hour time intervals using [^14 C] benzylamine as substrate.
Apo-MAO B was obtained by expressing MAO B cDNA in Rib^- COS-7 cells. The cells were then harvested and homogenized as described above. One half of the lysate was stirred in the presence of 0.25% Triton X-100 at 4° C. for 50 min. to extract apo-MAO B from the outer mitochondrial membrane. The second half of the lysate was not extracted with Triton X-100 to permit MAO B to remain in the membrane. […] Assays were also carried out in the presence of an energy mixture (10 mM ATP, 32 mM PEP and 2.4 μg pyruvate kinase) and 25% glycerol in the reaction vials. Each sample was run in triplicate. After 1, 2 or 3 hours incubation at 30° C., each sample was assayed for MAO B activity as described below.
as §2

MAO B [5] = target: T1, MAO B; assay: Subcellular fractionation of transfected Rib^+ and Rib^- COS-7 cells: distribution of MAO B and activity; format: cell-based; settings: for Fraction activity: Rib^+ COS-7
Procedure: COS-7 subcellular fractionation was carried out with a modified method of Clark and Waterman (24). Transfected Rib^+ - or Rib^- COS-7 cells were harvested, washed twice with ice-cold PBS, and pelleted by microcentrifugation at 500×g for 5 minutes. The cells were then homogenized in a Dounce homogenizer. Greater than 95% of the cells were lysed, as determined by trypan blue staining. The homogenate was diluted with an equal volume of 10 mM Tris-HCl, 1 mM EDTA, pH 8.0, to obtain a 0.25M final sucrose concentration and layered over 0.5 volume of 0.5M sucrose pad (0.5M sucrose in 10 mM Tris-HCl, 1 mM EDTA, pH 8.0). The solution was centrifuged at 5,000 rpm for 3 minutes using a swinging bucket rotor (TLS.55, Beckman TL-100) to remove cell debris and nuclei (P1 fraction). The supernatant plus the interface of the 0.5M sucrose pad was again layered over another 0.5M sucrose pad, and centrifuged as above at 17,000 rpm for 20 minutes to isolate mitochondria (P2 fraction). The resulting supernatant was centrifuged at 70,000 rpm (TL100.3, Beckman TL-100) for 30 minutes to sediment microsomes (P3 fraction). The final supernatant was the cytosol (S). After subcellular fractionation, P1, P2 and P3 were resuspended in 20 mM Tris-HCl, 1 mM EDTA, 0.5 mM PMSF, 150 mM NaCl, pH 8.0. All samples were treated with Triton X-100 to extract MAO B, and then protein concentrations, MAO B concentrations and enzymatic activities were determined.
as §1, §2
Transfected Rib^+ or Rib^- COS7 cells (1.2 × 10^7

[6] = COS-7 cells grown in riboflavin-free medium for 76 days
[7] = cofactor added with MAO B cDNA into Rib^- COS-7 cells, 48 hours, mean ± SE, three experiments
[8] = Mitochondria (P2), listed as holo-MAO B

monoamine oxidase B [MAO B]
MAO B activity, % of MAO B holoenzyme activity in Rib^+ COS-7 cells (MAO B [1]; 100 days in riboflavin-free medium): less than 5%
MAO B activity (MAO B [1]; after 116 days in riboflavin-free medium): nearly undetectable
Expression (MAO B [2]; [6]): 0.90 μg MAO B/mg prot.
[MAO B] (MAO B [2]; [6]): 3.70 µg/mL
Expression (MAO B [2]; Rib^+ COS-7): 0.86 μg MAO B/mg prot.
[MAO B] (MAO B [2]; Rib^+ COS-7): 3.50 µg/mL
MAO B expression level (MAO B [2]; during riboflavin depletion, regardless of time in riboflavin-free medium): 0.95±0.04 μg/mg protein

B1: Holo-MAO B: obtained by expressing MAO B cDNA in Rib^+ COS-7 cells, which served as a positive control (protein, UniProt P27338 2-520, looked up)
Amine oxidase …: SNKCDVVVVGGGISGMAAAKLLHDSGLNVVVLEARDRVGGRTYTLRNQKVKYVDLGGSYVGPTQNRILRLAKELGLETYKVNEVERLIHHVKGKSYPFRGPFPPVWNPITYLDHNNFWRTMDDMGREIPSDAPWKAPLAEEWDNMTMKELLDKLCWTESAKQLATLFVNLCVTAETHEVSALWFLWYVKQCGGTTRIISTTNGGQERKFVGGSGQVSERIMDLLGDRVKLERPVIYIDQTRENVLVETLNHEMYEAKYVISAIPPTLGMKIHFNPPLPMMRNQMITRVPLGSVIKCIVYYKEPFWRKKDYCGTMIIDGEEAPVAYTLDDTKPEGNYAAIMGFILAHKARKLARLTKEERLKKLCELYAKVLGSLEALEPVHYEEKNWCEEQYSGGCYTTYFPPGILTQYGRVLRQPVDRIYFAGTETATHWSGYMEGAVEAGERAAREILHAMGKIPEDEIWQSEPESVDVPAQPITTTFLERHLPSVPGLLRLIGLTTIFSATALGFLAHKRGLLVRV
modifications: FAD holoenzyme
notes: obtained by expressing MAO B cDNA in Rib^+ COS-7 cells, which served as a positive control
Enzymatic Activity (MAO B [3]; [7]): 1.13 ± 0.14 μmol benzylamine/minute/mg MAO
Percent of Holo-MAO B Activity (MAO B [3]; relative to holo-MAO B expressed in Rib^+ COS-7 cells): 100%
stability of enzymatic activity in cell lysate (MAO B [4]): remained fully active
Fraction activity, percentage of total (MAO B [5]; Cell debris (P1)): 4.5%
MAO B amount (MAO B [5]; Cell debris (P1)): 58 ng
MAO B, percentage of total amount (MAO B [5]; Cell debris (P1)): 6.1%
Fraction activity, percentage of total (MAO B [5]; Cytosol (S)): 3.7%
MAO B amount (MAO B [5]; Cytosol (S)): 45 ng
MAO B, percentage of total amount (MAO B [5]; Cytosol (S)): 4.7%
Fraction activity, percentage of total (MAO B [5]; Microsome (P3)): 8.6%
MAO B amount (MAO B [5]; Microsome (P3)): 96 ng
MAO B, percentage of total amount (MAO B [5]; Microsome (P3)): 10%
Fraction activity, percentage of total (MAO B [5]; Mitochondria (P2)): 83.3%
MAO B amount (MAO B [5]; Mitochondria (P2)): 760 ng
MAO B, percentage of total amount (MAO B [5]; Mitochondria (P2)): 79.3%
Fraction activity, percentage of total (MAO B [5]; [8]): Approximately 80%
MAO B, percentage of total amount (MAO B [5]; [8]): Approximately 80%
Fraction activity (MAO B [5]; Cell debris (P1)): 0.6 10^-4 mmol/minute
Fraction activity (MAO B [5]; Cytosol (S)): 0.48 10^-4 mmol/minute
Fraction activity (MAO B [5]; Microsome (P3)): 1.11 10^-4 mmol/minute
Fraction activity (MAO B [5]; Mitochondria (P2)): 10.8 10^-4 mmol/minute
MAO B Expressed (MAO B [2]; [7]): 1.05 ± 0.25
